The DeepSol protein solubility set

test: soluble on expression in E. coli; label from the status in PepcDB or PDB records

Sequence	soluble on expression in E. coli
MSLNQFTTDLVQALVQKENVTEIFRSHLENAVNTLLASELTAFLDYEKYDRIGFNTGNSRNGSYERTLHTEFGELHLVIPRDRNGDFKQQTVAPYKRSNDTLEAFVIHMFQKGVTTAEIAHLMERMYGHHYTPQTISNMTKVMSEQVEAFRDRTLCARYACVYLDATYIALKRDTVSKEAVYIAVGIREDGSKEVLGYTIAPNESAFVWKELLEDIKSRGVEEILLFISDGLKGISDSVFSIYPASSYQTCCVHLSRTIAHKVRVSDRAEICEDFKSVYRAESLEMGQQALHSFIEKWKSKYPKVTKPLLNNSYLFTFYSFPKSIWRSIYSTNLIESFNKQIKKYSKRKEQFPNEESLERFLVSQFDQYNQRFATRCHIGFDQARAELQMMFKTNEGHHHHHH	soluble
MSLNQLLFVPLGGIGEIGMNLALYGYGPEHAREWIAVDVGISFAGADFPGVDLVFPDIRFIEELGDKLKGIVITHAHEDHYGALLDLWPKMKVPVYATAFTAAMLAAKREGEPGAPKIPVTQFSAGDRFKVGPFEIEAINVTHSIPEPVALAIRSPAGTVVHTGDWKIDPTPALGAPTDEKRLREIGDEGVLAMICDSTNALREGVSPSESEVSASLGEIIRGAKGRVAVTTFSSNVGRIRSIAAAARDAGRQVLLMGRSMRRVVDVSTELGYMDGIPPFLGEQDFGYIPPEKAVIILTGSQGETRAALARLSRDEHPTVALSQGDLVIFSSRAIPGNEKLIIDIKNALIERGVQILEDGEKLVHVSGHPRRSEMRQMYEWVRPTIAVPAHGEAAHLSAHAKLARELGVKQVVPARNGKMVQLSPGAASVIADVPVGRLFKDEGHHHHHH	soluble
MSLNQPDLFSSTSGTVGGLAVQSILEGFKSHYARDQETELSLEEYLSLAKQDPMAYASPAERMLAAIGEPELIDTRNDPRLSRLFSNRLVRRYPAFKEFYGLEDVIDQIVAFFKHAAQGLEERKQILYLLGPVGGGKSSIAERLKVLMEAYPIYALKGSPVNESPLGLFHPDRFGDTLEQEYGIARRYLCGIMSPWAVKRLREFDGDISQFRVVRLNPSVLRQVAIAKTEPGDENNQDISSLVGKVDIRKLERYAQDDPDAYSYSGGLCLANQGLLEFVEMFKAPIKMLHPLLTATQEGNFKGTEGFSAIPFNGMILAHSNESEWQTFRNNKHNEAFLDRIYIVKVPYCLQVSEEVCIYEKLLRHSSLAQAPCAPGTLDMMAQFSVLTRLKEPENSSIYSKLRVYDGESLKDVDPKAKALQEYKDYAGTDEGMTGVSTRFAYKILSSVFNYDQTEVAANPVHLMYVLEQRIAREDFPEETRRRYLEFIKGYLAPRYAEFIGKEIQTAYLESYSEYGQNIFDRYVTFADCWIQDEEFRDPETGESFDRSALNDELEKIEKPAGIANPKDFRNEIVNFVLRARANNAGRNPNWTSYEKLREVIEKKMFSNTEDLLPVISFNAKASAEDRSKHQSFVDRMVDKGYTEKQVRLLCEWYLRVRKSSEGHHHHHH	soluble
MSLNRAFRREQYARMVALSEPLIADYLGVRLPEPVSRIFVFDRREWLEANIVSFSQLFRPIEEMYEKNGGGRGALGVLMNDVSSKLLGVQIGGLLGYLAQRVLGQYDLSLLSAEATGGSLYFVEPNIARVQQQLGLSDEDFRLWITLHEMTHAFEFEAYPWVRTYFRELLEQNFALVSGQMLSSGNSLVDMLMRLLQGEGHHHHHH	not soluble
MSLNRFFNRELSWLAFNTRVLNEAKDESLPLLERLKFLAIYDTNLDEFYMIRVAGLKQLYEHKIASKGIDGASPEEQLEKIKHYLAHEIEERELEFQKIQALLFKKGLCITPYNELNLEQKAKAKTYFKEQLYALVLPFKLDSSHTFPPLANLTFALFARIKDKETQIISYALIKLPSFIFRFVELEKGLFVLAEEIVEAHLEELFLEHEILDCMAFRVTCDADIAITEDEAHDYADLMSKSLRKRNQGEIVRLQTQKGSQELLKTLLASLRSFQTHSYKKHKLTGMHIYKSAIMLNLGDLWELVNHSDFKALKSPNFTPKIHPHFNENDLFKSIEKQDLLLFHPYESFEPVIDLIEQAASDPATLSIKMTLYRVGKHSPIVKALIEAASKIQVSVLVELKARFDEESNLHWAKALERAGALVVYGVFKLKVHAKMLLITKKTDNQLRHFTHLSTGNYNPLSAKVYTDVSFFSAKNEIANDIIKLFHSLLTSSATNSALETLFMAPKQIKPKIIELIQNEMNHQQEGYIILKANALVDSEIIEWLYQASQKGVKIDLIIRGICCLKPQVKGLSENIRVYSIVGKYLEHARIYYFKHENIYFSSADLMPRNLERRVELLIPATNPKIAHKLLHILEIQLKDTLKRYELNSKGRYIKVSNPNDPLNSQDYFEKQALKTFEGHHHHHH	soluble
MSLNRKLLTADERQARDTERRSQLDVALMEGVQAILDSDSFKAVLAANAKFHSYSVNNAMLIWLQNPAAERVAGFHTWRKLGRSVKKGAKGIMIYAPRVATNVDAATGSEETHVYFGIEHVFDISQTEGDDIPTLDCPVLTEERGHDVYDRLVTYATRDGLTVSSDVAHELSEAMGYYSAVSKRIWVRPTAKAQMLKTLIHEIAHHLTEGKHTREAHETIAEGVAFQVCACLGIDSGERSFPYIAGWSASEGGTALIKQVLGHIQAITKQVMAIVEPADEANEGAEGHHHHHH	soluble
MSLNRRELLERISEYQFACIELNLYLDNNPRDKKALDSYNRYCDKFTQAVCDYESKYGALTNFGYESSEYPWSWISEPWPWDKSFYK	soluble
MSLNTQDFLAGYTKRFVDNKEEDMSLDEYLELCKTDPTAYANPAERLLMAIGEPELIDTRHDPVLSRIFSNKIIHHYEVFEDFYGMEEPIEQIVGFLKHAAQGLEETKQVLYLLGPVGGGKSSIAEKLKDLMERVPFYAIKGSPVFESPLSLFNPQEDGELLRERFGIPTRYLRYLMSPWAVKRLQEYNGDISKFRVIKVKPSRLKQIAIAKTEPGDENNQDISSLVGKVDIRKLEEFSQDDPDAYSYSGGLCRANRGLLEFVEMFKAPIKVLHPLLTATQEGNYNATEGLSAIPFEGIILAHSNESEWQSFRNNKNNEAFIDRINIVKVPYCLRVSEEIKIYQKLIHNSSLANAPCAPGTLDMLAQFSVLTRLKEPQNSSIYSKMRVYNGESLKDTDPKAKSYQEYRDFAGVDEGMSGISTRFAFKILSKVFNFDHTEVAANPVHLMYVLERQIEQEQFPQELHETYLNFIKEYLATKYVDFIGKEIQTAYLESYSEYGQNIFDRYITYADFWIQDQDYRDPDTGEIFDRALLNLELEKIEKPAGISNPKDFRNEVVNFVLRARANNRGKNPVWNSYEKLKSVIEKKMFTNTEDLLPVISFNAKASEEDKKKHEEFISRMVEKGYTRKQVRLLCEWYLRVRKSQEGHHHHHH	soluble
MSLNTQLAIIRSKGKEHICYREEECFVDVSYPMVTFTKGEDDFEIVKCDHPSMEETFLYQESRLSIVIEMYHNGWPALSLKDPVTHEIYTVLTVNLEDKAAFSLPDRAFVDINNNPDAMEFLLSNKLAEDTGYRRQSGWVSYPMVTLNLPTFYRLDPHAFSAILNIREGHHHHHH	soluble
MSLNYVAEIDLLAEELAQELEIEGGETYGILAAHLRSLYGIHITRTEAAGGLIRHFDPAGKTLALSSYMAAPTRCFQLALQIAQLHAGATVDRVLAGAGFRNAEAAEICRIGLHNYFAAALILPYGQFHRAAQELRHDLELLAVRFGASLEQVAHRLSTLQRPGMKGVPIFFAKIDRAGNITKRHSATRLQFARFGAACPLWNIHQAFESSDRIVRQLAETPDGVRYLSIATQIEKAGAGFNTERPRYAIALGCEISHAQNFVYADTLDLGNAASFKPIGISCRVCERVDCVQRAVPPLKRKLHFDHLSRGALPYQIAEGHHHHHH	not soluble
MSLPAKTLVQAAANSGLRAVSVRHSSQAPKVALLGAAGGIGQPLGLLLKQDPLVAHLALYDVVNTPGVAADLSHIDSNAKVTAHTGPKELYAAVENADVIVIPAGVPRKPGMTRDDLFNTNAGIVRDLAAVIAKASPKALIAIITNPVNSTVPIASEVLKKAGVYDPKRVFGVTTLDVVRSQAFVSELKGHDASKTVVPVVGGHAGITIIPLLSQVKPSTKFSEEEISKLTPRIQDAGTEVVNAKAGAGSATLSMALAGARFANALVRGIKGEKNVQCAYVASDAVKGVEYFSTPVELGPNGVEKILGVGKVSAYEQKLIDASVPELNKNIAKGVAFVKGN	not soluble
MSLPAYKRVLLKLSGEALMGDDAFGINRSTIEGMVNDIAEIVRLGVQVAVVIGGGNIFRGVAGGAAGMDRATADYMGMLATMMNALALQDAMRHANIEGRVQSALRMDQVVEPYIRPRAIRQLEEGKVVIFAAGTGNPFFTTDTAAALRGSEIGAEIVLKATKVDGVYTADPKKDPSATRYTTISFDEAISRNLQVMDATAFALCRDQKLPIKVFSIQKPNALKRVIMGEDEGTLEGHHHHHH	soluble
MSLPEDYWSAKDYQRNASFVPKLTKDIVKRINLSSSDELLDLGCGDGVLTNELVSQCRRVVGIDASPDMIKAARELGLNAYVIPGEKLLDASEIPSESFDVVFSNAALHWIMRQPKNRPIVMKGVSRVLRTKGRFVAECGAFGNVSEVVGSIYSILLALGATKEQIDQANPWFFGSEDDYTRMLEEAGFHVEYVENISRPTLLNKDVREWLDTFAQHFYHAFPQWKDIIRETVYNALLVTDCRSDGKWFLQYRRLRFVAHKEEGHHHHHH	soluble
MSLPRARSTIAMCLALTALLGACGRSPQECMERAMYFESNRSSRDGMVAVGSVVMNRVESGQYPKSVCGVVGQRFQFAPRIMSRRMDSRSLPLVRETARSVLKGERHPMIGDAMFFHTAGHRFPYDNMHYVLVTGGNAFYERRPSALVTQPVPPQPMEGLTGWRGW	not soluble
MSLPRITALRTIRLPERPKLIWVEVETEDGLTGLGETFRGAQAVEAVLHEQTAPAIIGRAAENITSISSELLNPYVGFGSSSAEVRAASAVDIALWDLAGQRAGVPLHVALGGAARDRVPVYATCAGYDFNTSLGGRRSIGSAELSTGPYDDQVAFMRDAGVLAESLVAEGYAAMKIWPFDDFASITPHHISLTDLKDGLEPFRKIRAAVGQRIEIMCELHSLWGTHAAARICNALADYGVLWVEDPIAKMDNIPAVADLRRQTRAPICGGENLAGTRRFHEMLCADAIDFVMLDLTWCGGLSEGRKIAALAETHARPLAPHDCTGPVALMAGLHLALHAPTAIFQEVVRASLATWYADLVDHLPVIQEGIALAPTRPGLGTALLPHVRKIAGAVVRESGKPREGHHHHHH	soluble
MSLQHMYRCARVQGLDTSEGLLLFGKEHFYVIDGFTMTATREIRDIETLPPNMHEPIIPRGARQGPSQLKRTCSIFAYEDIKEVHKRRYLLQPIAVEVFSGDGRNYLLAFQKGIRNKVYQRFLAVVPSLTDSSESVSGQRPNTSVEQGSGLLSTLVGEKSVTQRWERGEISNFQYLMHLNTLAGRSYNDLMQYPVFPWILSDYDSEEVDLTNPKTFRNLAKPMGAQTDERLAQYKKRYKDWEDPNGETPAYHYGTHYSSAMIVASYLVRMEPFTQIFLRLQGGHFDLADRMFHSVREAWYSASKHNMADVKELIPEFFYLPEFLFNSNNFDLGCKQNGTKLGDVILPPWAKGDPREFIRVHREALECDYVSAHLHEWIDLIFGYKQQGPAAVEAVNVFHHLFYEGQVDIYNINDPLKETATIGFINNFGQIPKQLFKKPHPPKRVRSRLNGDNIGISVPPGATSDKIFFHHLDNLRPSLTPVKELKEPVGQIVCTDKGILAVEQNKVLIPPAWNKTFAWGYADLSCRLGTYESDKAVTVYECLSEWGQILCAVCPNPKLVITGGTSTVVCVWEMGTSKEKAKPLTLKQALLGHTDTVTCATASLAYHIIVSGSRDRTCIIWDLNKLSFLTQLRGHRAPVSALCINELTGDIVSCAGTYIHVWSINGNPIVSVNTFTGRSQQIVCCCMSEMNEWDTQNVIVTGHSDGVVRFWRMEFLQVPETPAPEPVEDLEMQEGCPEAQIGQQAQDDDSSDSETEEPSVSQDPKDTSSQPSSTSHRPRAASCRATATWCTDSGSDDSRRWSDQLSLDEKDGFIFVNYSEGQTRAHLQGPLAHPHPNPIEARSYSRLKPGYRWERQLVFRSKLTMHTAFDRKDNTHPAEVTALGVSKDHSRILVGDSRGRVFSWSVSDQEGHHHHHH	not soluble
